In US20230250154A1 (CYTONICS, published 2023):

T1: Cathepsin G (UniProt P08311 21-244)
T1 sequence (looked up): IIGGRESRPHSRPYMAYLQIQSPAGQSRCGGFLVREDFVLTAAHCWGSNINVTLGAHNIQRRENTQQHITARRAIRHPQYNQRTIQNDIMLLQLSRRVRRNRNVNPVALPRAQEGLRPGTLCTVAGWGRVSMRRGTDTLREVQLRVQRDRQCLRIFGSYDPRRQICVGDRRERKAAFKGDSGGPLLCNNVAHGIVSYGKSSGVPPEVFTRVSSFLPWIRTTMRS

T2: MMP1 (human, UniProt P03956 100-469, limits assumed)
T2 sequence (looked up): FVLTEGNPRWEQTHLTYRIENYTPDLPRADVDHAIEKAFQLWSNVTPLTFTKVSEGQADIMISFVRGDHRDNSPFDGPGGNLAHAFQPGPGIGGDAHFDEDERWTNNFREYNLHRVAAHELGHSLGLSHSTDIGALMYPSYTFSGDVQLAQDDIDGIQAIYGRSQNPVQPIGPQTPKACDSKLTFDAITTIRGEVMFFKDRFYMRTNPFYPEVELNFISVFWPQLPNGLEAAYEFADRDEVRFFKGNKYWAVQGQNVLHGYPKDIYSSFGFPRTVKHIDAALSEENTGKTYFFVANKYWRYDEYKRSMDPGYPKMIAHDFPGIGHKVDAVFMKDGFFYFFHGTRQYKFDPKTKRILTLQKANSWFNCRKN

B1: Variant A2M, bait region SEQ ID NO 131 (other)
chain: SVSGKPQYMVLVPSLLHTETTEKGCVLLSYLNETVTVSASLESVRGNRSLFTDLEAENDVLHCVAFAVPKSSSNEEVMFLTVQVKGPTQEFKKRTTVMVKNEDSLVFVQTDKSIYKPGQTVKFRVVSMDENFHPLNELIPLVYIQDPKGNRIAQWQSFQLEGGLKQFSFPLSSEPFQGSYKVVVQKKSGGRTEHPFTVEEFVLPKFEVQVTVPKIITILEEEMNVSVCGLYTYGKPVPGHVTVSICRKYSDASDCHGEDSQAFCEKFSGQLNSHGCFYQQVKTKVFQLKRKEYEMKLHTEAQIQEEGTVVELTGRQSSEITRTITKLSFVKVDSHFRQGIPFFGQVRLVDGKGVPIPNKVIFIRGNEANYYSNATTDEHGLVQFSINTTNVMGTSLTVRVNYKDRSPCYGYQWVSEEHEEAHHTAYLVFSPSKSFVHLEPMSHELPCGHTQTVQAHYILNGGTLLGLKKLSFYYLIMAKGGIVRTGTHGLLVKQEDMKGHFSISIPVKSDIAPVARLLIYAVLPTGDVIGDSAKYDVENCLANKVDLSFSPSQSLPASHAHLRVTAAPQSVCALRAVDQSVLLMKPDAELSASSVYNLLPEKDLTGFPGPLNDQDDEDCINRHNVYINGITYTPVSSTNEKDMYSFLEDMGLKAFTNSKIRKPKMCPQLEQYEMHGPEGEGEGEGISEDLVVQIPENFFGVKEEEGLGSVEEPHTKLRKYFPETWIWDLVVVNSAGVAEVGVTVPDTITEWKAGAFCLSEDAGLGISSTASLRAFQPFFVELTMPYSVIRGEAFTLKATVLNYLPKCIRVSVQLEASPAFLAVPVEKEQAPHCICANGRQTVSWAVTPKSLGNVNFTVSAEALESQELCGTEVPSVPEHGRKDTVIKPLLVEPEGLEKETTFNSLLCPSGGEVSEELSLKLPPNVVEESARASVSVLGDILGSAMQNTQNLLQMPYGCGEQNMVLFAPNIYVLDYLNETQQLTPEIKSKAIGYLNTGYQRQLNYKHYDGSYSTFGERYGRNQGNTWLTAFVLKTFAQARAYIFIDEAHITQALIWLSQRQKDNGCFRSSGSLLNNAIKGGVEDEVTLSAYITIALLEIPLTVTHPVVRNALFCLESAWKTAQEGDHGSHVYTKALLAYAFALAGNQDKRKEVLKSLNEEAVKKDNSVHWERPQKPKAPVGHFYEPQAPSAEVEMTSYVLLAYLTAQPAPTSEDLTSATNIVKWITKQQNAQGGFSSTQDTVVALHALSKYGAATFTRTGKAAQVTIQSSGTFSSKFQVDNNNRLLLQQVSLPELPGEYSMKVTGEGCVYLQTSLKYNILPEKEEFPFALGVQTLPQTCDEPKAHTSFQISLSVSYTGSRSASNMAIVDVKMVSGFIPLKPTVKMLERSNHVSRTEVSSNHVLIYLDKVSNQTLSLFFTVLQDVPVRDLKPAIVKVYDYYETDEFAIAEYNAPCSKDLGNADYKDDDDKGASHHHHHH
B2: Variant A2M, bait region SEQ ID NO 133 (other)
chain: SVSGKPQYMVLVPSLLHTETTEKGCVLLSYLNETVTVSASLESVRGNRSLFTDLEAENDVLHCVAFAVPKSSSNEEVMFLTVQVKGPTQEFKKRTTVMVKNEDSLVFVQTDKSIYKPGQTVKFRVVSMDENFHPLNELIPLVYIQDPKGNRIAQWQSFQLEGGLKQFSFPLSSEPFQGSYKVVVQKKSGGRTEHPFTVEEFVLPKFEVQVTVPKIITILEEEMNVSVCGLYTYGKPVPGHVTVSICRKYSDASDCHGEDSQAFCEKFSGQLNSHGCFYQQVKTKVFQLKRKEYEMKLHTEAQIQEEGTVVELTGRQSSEITRTITKLSFVKVDSHFRQGIPFFGQVRLVDGKGVPIPNKVIFIRGNEANYYSNATTDEHGLVQFSINTTNVMGTSLTVRVNYKDRSPCYGYQWVSEEHEEAHHTAYLVFSPSKSFVHLEPMSHELPCGHTQTVQAHYILNGGTLLGLKKLSFYYLIMAKGGIVRTGTHGLLVKQEDMKGHFSISIPVKSDIAPVARLLIYAVLPTGDVIGDSAKYDVENCLANKVDLSFSPSQSLPASHAHLRVTAAPQSVCALRAVDQSVLLMKPDAELSASSVYNLLPEKDLTGFPGPLNDQDDEDCINRHNVYINGITYTPVSSTNEKDMYSFLEDMGLKAFTNSKIRKPKMCPQLEQYEMHGPIPENFFGVEGEGEGESELEGRGSSEDLVVQIVEEPHTKLRKYFPETWIWDLVVVNSAGVAEVGVTVPDTITEWKAGAFCLSEDAGLGISSTASLRAFQPFFVELTMPYSVIRGEAFTLKATVLNYLPKCIRVSVQLEASPAFLAVPVEKEQAPHCICANGRQTVSWAVTPKSLGNVNFTVSAEALESQELCGTEVPSVPEHGRKDTVIKPLLVEPEGLEKETTFNSLLCPSGGEVSEELSLKLPPNVVEESARASVSVLGDILGSAMQNTQNLLQMPYGCGEQNMVLFAPNIYVLDYLNETQQLTPEIKSKAIGYLNTGYQRQLNYKHYDGSYSTFGERYGRNQGNTWLTAFVLKTFAQARAYIFIDEAHITQALIWLSQRQKDNGCFRSSGSLLNNAIKGGVEDEVTLSAYITIALLEIPLTVTHPVVRNALFCLESAWKTAQEGDHGSHVYTKALLAYAFALAGNQDKRKEVLKSLNEEAVKKDNSVHWERPQKPKAPVGHFYEPQAPSAEVEMTSYVLLAYLTAQPAPTSEDLTSATNIVKWITKQQNAQGGFSSTQDTVVALHALSKYGAATFTRTGKAAQVTIQSSGTFSSKFQVDNNNRLLLQQVSLPELPGEYSMKVTGEGCVYLQTSLKYNILPEKEEFPFALGVQTLPQTCDEPKAHTSFQISLSVSYTGSRSASNMAIVDVKMVSGFIPLKPTVKMLERSNHVSRTEVSSNHVLIYLDKVSNQTLSLFFTVLQDVPVRDLKPAIVKVYDYYETDEFAIAEYNAPCSKDLGNADYKDDDDKGASHHHHHH
B3: Variant A2M, bait region SEQ ID NO 135 (other)
chain: SVSGKPQYMVLVPSLLHTETTEKGCVLLSYLNETVTVSASLESVRGNRSLFTDLEAENDVLHCVAFAVPKSSSNEEVMFLTVQVKGPTQEFKKRTTVMVKNEDSLVFVQTDKSIYKPGQTVKFRVVSMDENFHPLNELIPLVYIQDPKGNRIAQWQSFQLEGGLKQFSFPLSSEPFQGSYKVVVQKKSGGRTEHPFTVEEFVLPKFEVQVTVPKIITILEEEMNVSVCGLYTYGKPVPGHVTVSICRKYSDASDCHGEDSQAFCEKFSGQLNSHGCFYQQVKTKVFQLKRKEYEMKLHTEAQIQEEGTVVELTGRQSSEITRTITKLSFVKVDSHFRQGIPFFGQVRLVDGKGVPIPNKVIFIRGNEANYYSNATTDEHGLVQFSINTTNVMGTSLTVRVNYKDRSPCYGYQWVSEEHEEAHHTAYLVFSPSKSFVHLEPMSHELPCGHTQTVQAHYILNGGTLLGLKKLSFYYLIMAKGGIVRTGTHGLLVKQEDMKGHFSISIPVKSDIAPVARLLIYAVLPTGDVIGDSAKYDVENCLANKVDLSFSPSQSLPASHAHLRVTAAPQSVCALRAVDQSVLLMKPDAELSASSVYNLLPEKDLTGFPGPLNDQDDEDCINRHNVYINGITYTPVSSTNEKDMYSFLEDMGLKAFTNSKIRKPKMCPQLEQYEMHGPIPENFFGVSELEGRGSSEDLVVQIKEEEGLGSVEEPHTKLRKYFPETWIWDLVVVNSAGVAEVGVTVPDTITEWKAGAFCLSEDAGLGISSTASLRAFQPFFVELTMPYSVIRGEAFTLKATVLNYLPKCIRVSVQLEASPAFLAVPVEKEQAPHCICANGRQTVSWAVTPKSLGNVNFTVSAEALESQELCGTEVPSVPEHGRKDTVIKPLLVEPEGLEKETTFNSLLCPSGGEVSEELSLKLPPNVVEESARASVSVLGDILGSAMQNTQNLLQMPYGCGEQNMVLFAPNIYVLDYLNETQQLTPEIKSKAIGYLNTGYQRQLNYKHYDGSYSTFGERYGRNQGNTWLTAFVLKTFAQARAYIFIDEAHITQALIWLSQRQKDNGCFRSSGSLLNNAIKGGVEDEVTLSAYITIALLEIPLTVTHPVVRNALFCLESAWKTAQEGDHGSHVYTKALLAYAFALAGNQDKRKEVLKSLNEEAVKKDNSVHWERPQKPKAPVGHFYEPQAPSAEVEMTSYVLLAYLTAQPAPTSEDLTSATNIVKWITKQQNAQGGFSSTQDTVVALHALSKYGAATFTRTGKAAQVTIQSSGTFSSKFQVDNNNRLLLQQVSLPELPGEYSMKVTGEGCVYLQTSLKYNILPEKEEFPFALGVQTLPQTCDEPKAHTSFQISLSVSYTGSRSASNMAIVDVKMVSGFIPLKPTVKMLERSNHVSRTEVSSNHVLIYLDKVSNQTLSLFFTVLQDVPVRDLKPAIVKVYDYYETDEFAIAEYNAPCSKDLGNADYKDDDDKGASHHHHHH

Target: Elastase
Test: cell-based or functional assay

In order of falling “Protease Inhibition (% of WT)” value:
1. B2  350 % of WT
2. B1  300 % of WT
3. B3  300 % of WT

Target: T1, Cathepsin G
Test: cell-based or functional assay

In order of falling “Protease Inhibition (% of WT)” value:
1. B1  200 % of WT
2. B2  100 % of WT
3. B3  100 % of WT

Target: T2, MMP1
Test: cell-based or functional assay

In order of rising “Protease Inhibition (% of WT)” value:
1. B2  250 % of WT
2. B1  300 % of WT
3. B3  300 % of WT
